From patent publication US20120034160A1 (AbbVie / Abbott, published 2012)
Positions count from the first letter of the chain named.

T1: Recombinant Human IL-17 (human, UniProt Q16552 20-155, limits assumed)
T1 construct: bought reagent
T1 sequence (looked up): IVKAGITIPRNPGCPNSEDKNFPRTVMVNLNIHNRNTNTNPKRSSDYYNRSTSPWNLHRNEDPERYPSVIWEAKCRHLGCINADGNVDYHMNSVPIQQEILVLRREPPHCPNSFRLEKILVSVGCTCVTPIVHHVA

B1: DVD1606 (bispecific antibody, human IgG1, kappa)
heavy: not shown
light: EIVLTQSPDFQSVTPKEKVTITCRASQDIGSELHWYQQKPDQPPKLLIKYASHSTSGVPSRFSGSGSGTDFTLTINGLEAEDAGTYYCHQTDSLPYTFGPGTKVDIKRTVAAPSVFIFPPDTVVTQSPAFLSVTPGEKVTITCITSTDIDVDMNWYQQKPDQPPKLLISQGNTLRPGVPSRFSSSGSGTDFTFTISSLEAEDAATYYCLQSDNLPLTFGQGTKLEIKRTVAAPSVFIFPPSDEQLKSGTASVVCLLNNFYPREAKVQWKVDNALQSGNSQESVTEQDSKDSTYSLSSTLTLSKADYEKHKVYACEVTHQGLSSPVTKSFNRGEC
notes: DVD-Ig, outer AB274, inner AB271, linker set 2; V1 wt hIgG1, V2 kappa; also called DVD1606H; DVD1606L
B2: DVD1608 (bispecific antibody, human IgG1, kappa)
heavy: not shown
light: EIVLTQSPDFQSVTPKEKVTITCRASQDIGSELHWYQQKPDQPPKLLIKYASHSTSGVPSRFSGSGSGTDFTLTINGLEAEDAGTYYCHQTDSLPYTFGPGTKVDIKRTVAAPSVFIFPPETTVTQSPSSLSASVGDRVTITCITSTDIDVDMNWYQQKPGKPPKLLISQGNTLRPGVPSRFSSSGSGTDFTFTISSLQPEDFATYYCLQSDNLPLTFGQGTKLEIKRTVAAPSVFIFPPSDEQLKSGTASVVCLLNNFYPREAKVQWKVDNALQSGNSQESVTEQDSKDSTYSLSSTLTLSKADYEKHKVYACEVTHQGLSSPVTKSFNRGEC
notes: DVD-Ig, outer AB274, inner AB272, linker set 2; V1 wt hIgG1, V2 kappa; also called DVD1608H; DVD1608L
B3: DVD1610 (bispecific antibody, human IgG1, kappa)
heavy: not shown
light: EIVLTQSPDFQSVTPKEKVTITCRASQNIGSELHWYQQKPDQSPKLLIKYASHSISGVPSRFSGSGSGTDFTLTINGLEAEDAATYYCHQSDTLPHTFGQGTKVDIKRTVAAPSVFIFPPDIQMTQSPSSLSASVGDRVTITCRASGNIHNYLTWYQQTPGKAPKLLIYNAKTLADGVPSRFSGSGSGTDYTFTISSLQPEDIATYYCQHFWSIPYTFGQGTKLQITRTVAAPSVFIFPPSDEQLKSGTASVVCLLNNFYPREAKVQWKVDNALQSGNSQESVTEQDSKDSTYSLSSTLTLSKADYEKHKVYACEVTHQGLSSPVTKSFNRGEC
notes: V1 wt hIgG1, V2 kappa; also called DVD1610H; DVD1610L
B4: DVD1612 (bispecific antibody, human IgG1, kappa)
heavy: not shown
light: B3 light
notes: V1 wt hIgG1, V2 kappa; also called DVD1612H; DVD1612L
B5: DVD1614 (bispecific antibody, human IgG1, kappa)
heavy: not shown
light: B2 light with D28N, P43S, T55I, G84A, T91S, S93T, Y96H, P100Q, E121D, T123Q
notes: DVD-Ig, outer AB275, inner AB270, linker set 2; V1 wt hIgG1, V2 kappa; also called DVD1614H; DVD1614L
B6: DVD1616 (bispecific antibody, human IgG1, kappa)
heavy: not shown
light: B1 light with D28N, P43S, T55I, G84A, T91S, S93T, Y96H, P100Q
notes: DVD-Ig, outer AB275, inner AB271, linker set 2; V1 wt hIgG1, V2 kappa; also called DVD1616H; DVD1616L
B7: DVD1618 (bispecific antibody, human IgG1, kappa)
heavy: not shown
light: B2 light with D28N, P43S, T55I, G84A, T91S, S93T, Y96H, P100Q
notes: DVD-Ig, outer AB275, inner AB272, linker set 2; V1 wt hIgG1, V2 kappa; also called DVD1618H; DVD1618L
B8: DVD1620 (bispecific antibody, human IgG1, kappa)
heavy: not shown
light: DIQMTQSPSSLSASVGDRVTITCRASSGIISYIDWFQQKPGKAPKRLIYATFDLASGVPSRFSGSGSGTDYTLTISSLQPEDFATYYCRQVGSYPETFGQGTKLEIKRTVAAPDIQMTQSPSSLSASVGDRVTITCRASGNIHNYLTWYQQTPGKAPKLLIYNAKTLADGVPSRFSGSGSGTDYTFTISSLQPEDIATYYCQHFWSIPYTFGQGTKLQITRTVAAPSVFIFPPSDEQLKSGTASVVCLLNNFYPREAKVQWKVDNALQSGNSQESVTEQDSKDSTYSLSSTLTLSKADYEKHKVYACEVTHQGLSSPVTKSFNRGEC
notes: V1 wt hIgG1, V2 kappa; also called DVD1620H; DVD1620L
B9: DVD1622 (bispecific antibody, human IgG1, kappa)
heavy: not shown
light: B8 light
notes: V1 wt hIgG1, V2 kappa; also called DVD1622H; DVD1622L
B10: DVD1624 (bispecific antibody, human IgG1, kappa)
heavy: not shown
light: DIQMTQSPSSLSASVGDRVTITCRASSGIISYIDWFQQKPGKAPKRLIYATFDLASGVPSRFSGSGSGTDYTLTISSLQPEDFATYYCRQVGSYPETFGQGTKLEIKRTVAAPDTQVTQSPSSLSASVGDRVTITCITSTDIDVDMNWYQQKPGKPPKLLISQGNTLRPGVPSRFSSSGSGTDFTFTISSLQPEDFATYYCLQSDNLPLTFGQGTKLEIKRTVAAPSVFIFPPSDEQLKSGTASVVCLLNNFYPREAKVQWKVDNALQSGNSQESVTEQDSKDSTYSLSSTLTLSKADYEKHKVYACEVTHQGLSSPVTKSFNRGEC
notes: DVD-Ig, outer AB273, inner AB270, linker set 3; V1 wt hIgG1, V2 kappa; also called DVD1624H; DVD1624L
B11: DVD1626 (bispecific antibody, human IgG1, kappa)
heavy: not shown
light: DIQMTQSPSSLSASVGDRVTITCRASSGIISYIDWFQQKPGKAPKRLIYATFDLASGVPSRFSGSGSGTDYTLTISSLQPEDFATYYCRQVGSYPETFGQGTKLEIKRTVAAPDTVVTQSPAFLSVTPGEKVTITCITSTDIDVDMNWYQQKPDQPPKLLISQGNTLRPGVPSRFSSSGSGTDFTFTISSLEAEDAATYYCLQSDNLPLTFGQGTKLEIKRTVAAPSVFIFPPSDEQLKSGTASVVCLLNNFYPREAKVQWKVDNALQSGNSQESVTEQDSKDSTYSLSSTLTLSKADYEKHKVYACEVTHQGLSSPVTKSFNRGEC
notes: DVD-Ig, outer AB273, inner AB271, linker set 3; V1 wt hIgG1, V2 kappa; also called DVD1626H; DVD1626L

What follows are binders tested against T2, Recombinant Human IL-1β (human, UniProt P01584 117-269) (assay: Biacore SPR; C-terminal VD).
T2 construct: bought reagent; also called IL-1B
Experimental: (§1) The BIACORE assay (Biacore, Inc, Piscataway, N.J.) determines the affinity of antibodies or DVD-Ig with kinetic measurements of on-rate and off-rate constants. Binding of antibodies or DVD-Ig to a target antigen (for example, a purified recombinant target antigen) was determined by surface plasmon resonance-based measurements with a Biacore® 1000 or 3000 instrument (Biacore® AB, Uppsala, Sweden) using running HBS-EP (10 mM HEPES [pH 7.4], 150 mM NaCl, 3 mM EDTA, and 0.005% surfactant P20) at 25° C. All chemicals were obtained from Biacore® AB (Uppsala, Sweden) or otherwise from a different source as described in the text. For example, approximately 5000 RU of goat anti-mouse IgG, (Fcγ), fragment specific polyclonal antibody (Pierce Biotechnology Inc, Rockford, Ill.) diluted in 10 mM sodium acetate (pH 4.5) was directly immobilized across a CM5 research grade biosensor chip using a standard amine coupling kit according to manufacturer's instructions and procedures at 25 μg/ml. Unreacted moieties on the biosensor surface were blocked with ethanolamine. Modified carboxymethyl dextran surface in flowcell 2 and 4 was used as a reaction surface. Unmodified carboxymethyl dextran without goat anti-mouse IgG in flow cell 1 and 3 was used as the reference surface. For kinetic analysis, rate equations derived from the 1:1 Langmuir binding model were fitted simultaneously to association and dissociation phases of all eight injections (using global fit analysis) with the use of Biaevaluation 4.0.1 software. Purified antibodies or DVD-Ig were diluted in HEPES-buffered saline for capture across goat anti-mouse IgG specific reaction surfaces. Antibodies or DVD-Ig to be captured as a ligand (25 μg/ml) were injected over reaction matrices at a flow rate of 5 μl/min. The association and dissociation rate constants, kₒₙ (M⁻¹s⁻¹) and koff (s⁻¹) were determined under a continuous flow rate of 25 μl/min. Rate constants were derived by making kinetic binding measurements at different antigen concentrations ranging from 10−200 nM. The equilibrium dissociation constant (M) of the reaction between antibodies or DVD-Igs and the target antigen was then calculated from the kinetic rate constants by the following formula: KD=koff/kₒₙ. Binding was recorded as a function of time and kinetic rate constants are calculated.
Work on B1 yielded a Kd of 0.32 nM, a koff of 0.00044 s⁻¹ and a kon of 1.4e+06 M⁻¹ s⁻¹. With B2 the Kd was 0.37 nM, the koff was 0.00056 s⁻¹ and the kon was 1.5e+06 M⁻¹ s⁻¹. B3 showed a Kd of 0.25 nM, a koff of 7.3e-05 s⁻¹ and a kon of 290000 M⁻¹ s⁻¹. With B4 the Kd was 0.15 nM, the koff was 2.5e-05 s⁻¹ and the kon was 160000 M⁻¹ s⁻¹. With B5 the Kd was 0.18 nM, the koff was 0.0003 s⁻¹ and the kon was 1.7e+06 M⁻¹ s⁻¹. For B6, the Kd was 0.22 nM, the koff was 0.00036 s⁻¹ and the kon was 1.6e+06 M⁻¹ s⁻¹. In the case of B7, the Kd is reported as 0.26 nM, the koff is reported as 0.00062 s⁻¹ and the kon is reported as 2.4e+06 M⁻¹ s⁻¹. With B8 the Kd was 0.29 nM, the koff was 9.4e-05 s⁻¹ and the kon was 330000 M⁻¹ s⁻¹. With B9 the Kd was 0.16 nM, the koff was 0.00023 s⁻¹ and the kon was 1.5e+06 M⁻¹ s⁻¹. B10 showed a Kd of 0.84 nM, a koff of 0.00046 s⁻¹ and a kon of 550000 M⁻¹ s⁻¹. In the case of B11, the Kd is reported as 1 nM, the koff is reported as 0.00047 s⁻¹ and the kon is reported as 470000 M⁻¹ s⁻¹.

The binders below were run against T1, Recombinant Human IL-17 (assay: Biacore SPR; N-terminal VD).
Experimental: as §1
With B1 the Kd was 0.00067 nM, the koff was 3e-06 s⁻¹ and the kon was 4.4e+06 M⁻¹ s⁻¹. Binder B2 has a Kd of 0.0026 nM, a koff of 1.2e-05 s⁻¹ and a kon of 4.8e+06 M⁻¹ s⁻¹. B3 was tested, and the Kd was 0.017 nM, the koff was 5.7e-05 s⁻¹ and the kon was 3.5e+06 M⁻¹ s⁻¹. For B4, the Kd was 0.016 nM, the koff was 5.1e-05 s⁻¹ and the kon was 3.2e+06 M⁻¹ s⁻¹. B5 was tested, and the Kd was 0.014 nM, the koff was 4.8e-05 s⁻¹ and the kon was 3.5e+06 M⁻¹ s⁻¹. Binder B6 has a Kd of 0.015 nM, a koff of 4.9e-05 s⁻¹ and a kon of 3.3e+06 M⁻¹ s⁻¹. B7 showed a Kd of 0.019 nM, a koff of 6.3e-05 s⁻¹ and a kon of 3.2e+06 M⁻¹ s⁻¹. B8 was tested, and the Kd was 0.0019 nM, the koff was 7.1e-06 s⁻¹ and the kon was 3.8e+06 M⁻¹ s⁻¹. B9 was tested, and the Kd was 0.00046 nM, the koff was 1.7e-06 s⁻¹ and the kon was 3.7e+06 M⁻¹ s⁻¹. B10 gave a Kd of 0.011 nM, a koff of 4.1e-05 s⁻¹ and a kon of 3.7e+06 M⁻¹ s⁻¹. B11 showed a Kd of 0.0034 nM, a koff of 1.6e-05 s⁻¹ and a kon of 4.8e+06 M⁻¹ s⁻¹.
